Laboratory results from patent publication US20100068217A1.

What was measured:
[1] = molecular target: gp41e-1KU2 (Thermus aquaticus (origin of the scaffold protein, Table 1)); test: ELISA, antigen on the plate, 2F5 IgG titrated 2.6e-7 to 1e-1 ug/ul
MPER WT peptide [2] = test: as above
[3] = molecular target: MPER Cyclized peptide (HIV-1 gp41 MPER-derived, synthetic); test: kinetics with 2F5 as analyte (Biacore per paragraph 255)
[4] = molecular target: gp41e-2MAT (E. coli (origin of the scaffold protein, Table 1)); test: as above
[5] = molecular target: gp41e-1LGY (Rhizopus niveus (origin of the scaffold protein, Table 1)); test: as above
[6] = molecular target: gp41e-1KU2 (Thermus aquaticus (origin of the scaffold protein, Table 1)); test: as above
MPER WT peptide [7] = test: as above

2F5 antibody
EC50 (read off the curve) [1]: 0.2 µg/mL | EC50 (read off the curve) (MPER WT peptide [2]): 0.2 µg/mL | Kd [3]: 5.09 nM | koff [3]: 0.00269 s⁻¹ | kon [3]: 528000 M⁻¹ s⁻¹ | Kd [4]: 9.35 nM | koff [4]: 0.000679 s⁻¹ | kon [4]: 72600 M⁻¹ s⁻¹ | Kd [5]: 10.7 nM | koff [5]: 0.00396 s⁻¹ | kon [5]: 369000 M⁻¹ s⁻¹ | Kd [6]: 2.63 nM | koff [6]: 0.00287 s⁻¹ | kon [6]: 1.09e+06 M⁻¹ s⁻¹ | Kd (MPER WT peptide [7]): 6.45 nM | koff (MPER WT peptide [7]): 0.00356 s⁻¹ | kon (MPER WT peptide [7]): 552000 M⁻¹ s⁻¹
